Measured values reported in IntAct's records for PubMed 28776325.

What was measured:
rab4a_human RAB4A [1] = biological target: rab4a_human RAB4A (UniProt P20338)
rab4a_human RAB4A [2] = biological target: rab4a_human RAB4A (UniProt P20338); remark: listed apart in the source

Chain of rab4a_human RAB4A (P20338 whole entry): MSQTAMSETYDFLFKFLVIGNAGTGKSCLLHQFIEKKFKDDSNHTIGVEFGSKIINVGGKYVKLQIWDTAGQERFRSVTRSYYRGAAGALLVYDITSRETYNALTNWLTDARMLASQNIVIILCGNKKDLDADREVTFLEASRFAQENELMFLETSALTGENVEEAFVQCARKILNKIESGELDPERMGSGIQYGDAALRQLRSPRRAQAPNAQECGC
Chain of Protein NDRG1 (Homo sapiens), Q92597 L146P (Q92597 whole entry L146P): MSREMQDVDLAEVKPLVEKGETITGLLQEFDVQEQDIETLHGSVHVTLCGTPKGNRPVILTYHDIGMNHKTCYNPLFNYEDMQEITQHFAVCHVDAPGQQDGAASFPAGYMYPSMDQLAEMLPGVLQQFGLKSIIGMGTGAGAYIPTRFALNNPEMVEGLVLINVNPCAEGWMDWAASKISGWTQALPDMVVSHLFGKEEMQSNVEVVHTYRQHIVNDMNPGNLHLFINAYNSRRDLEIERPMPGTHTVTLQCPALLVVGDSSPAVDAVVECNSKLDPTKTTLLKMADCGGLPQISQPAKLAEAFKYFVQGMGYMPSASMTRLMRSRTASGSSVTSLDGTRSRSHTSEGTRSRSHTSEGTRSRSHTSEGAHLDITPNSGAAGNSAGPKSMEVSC
Chain of Protein NDRG1 (Homo sapiens), Q92597 R234Q (Q92597 whole entry R234Q): as the sequence (Q92597 whole entry L146P) above, with P146L, R234Q counted along it

Row | Substance | effect of a mutation on the interaction (rab4a_human RAB4A [1]) | effect of a mutation on the interaction (rab4a_human RAB4A [2])
1 | Protein NDRG1 (Homo sapiens), Q92597 L146P | with no effect | decreasing interaction strength
2 | Protein NDRG1 (Homo sapiens), Q92597 R234Q | with no effect | 
